Measurements taken from US20250312475A1.
Like-named read-outs stand apart in the source and are kept apart here.

Experiments:
[1] = target: HIV-1 Env of 20 pseudotyped viruses representing 10 different HIV-1 clades; experiment: cell-based or functional assay
[2] = target: HIV-1 Env of 20 pseudotyped viruses representing 10 different HIV-1 clades; experiment: cell-based or functional assay; remark: listed apart in the source

| Binder | % VS Neutralized: IC80 < 1 µg/mL (of 20 viruses) [1] [%] | % VS Neutralized: IC80 < 50 µg/mL (of 20 viruses) [1] [%] | Geometric Mean (IC80) [1] [µg/mL] | Total VS Neutralized: IC80 < 1 µg/mL (of 20 viruses) [1] [viruses] | Total VS Neutralized: IC80 < 50 µg/mL (of 20 viruses) [1] [viruses] | % VS Neutralized: IC80 < 1 µg/mL (of 20 viruses) [2] [%] | % VS Neutralized: IC80 < 50 µg/mL (of 20 viruses) [2] [%] | Geometric Mean (IC80) [2] [µg/mL] | Total VS Neutralized: IC80 < 1 µg/mL (of 20 viruses) [2] [viruses] | Total VS Neutralized: IC80 < 50 µg/mL (of 20 viruses) [2] [viruses] | Median IC80 [1] [µg/mL] |
| --- | --- | --- | --- | --- | --- | --- | --- | --- | --- | --- | --- |
| V1/V2 directed Ab “a” (antibody, V domains shown) VH: QVHLTQSGPEVRKPGTSVKVSCKAPGNTLKTYDLHWVRSVPGQGLQWMGWISHEGDKKVIVERFKAKVTIDWDRSTNTAYLQLSGLTSGDTAVYYCAKGSKHRLRDYALYDDDGALNWAVDVDYLSNLEFWGQGTAVTVSS VL: DFVLTQSPHSLSVTPGESASISCKSSHSLIHGDRNNYLAWYVQKPGRSPQLLIYLASSRASGVPDRFSGSGSDKDFTLKISRVETEDVGTYYCMQGRESPWTFGQGTKVDIK | 45 | 55 | 0.094 | 9 | 11 |  |  |  |  |  |  |
| V1/V2 directed Ab “b” (antibody, V domains shown) VH: QVQLVESGGGVVQPGTSLRLSCAASQFRFDGYGMHWVRQAPGKGLEWVASISHDGIKKYHAEKVWGRFTISRDNSKNTLYLQMNSLRPEDTALYYCAKDLREDECEEWWSDYYDFGKQLPCAKSRGGLVGIADNWGQGTMVTVSS VL: QSVLTQPPSVSAAPGQKVTISCSGNTSNIGNNFVSWYQQRPGRAPQLLIYETDKRPSGIPDRFSASKSGTSGTLAITGLQTGDEADYYCATWAASLSSARVFGTGTKVIVL |  |  |  |  |  | 45 | 45 | 0.039 | 9 | 9 |  |
| Binding Protein 2 (protein) light 1: DFVLTQSPHSLSVTPGESASISCKSSHSLIHGDRNNYLAWYVQKPGRSPQLLIYLASSRASGVPDRFSGSGSDKDFTLKISRVETEDVGTYYCMQGRESPWTFGQGTKVDIKDKTHTASELTQDPAVSVALKQTVTITCRGDSLRSHYASWYQKKPGQAPVLLFYGKNNRPSGIPDRFSGSASGNRASLTITGAQAEDEADYYCSSRDKSGSRLSVFGGGTKLTVLDKTHTRTVAAPSVFIFPPSDEQLKSGTASVVCLLNNFYPREAKVQWKVDNALQSGNSQESVTEQDSKDSTYSLSSTLTLSKADYEKHKVYACEVTHQGLSSPVTKSFNRGEC heavy 1: EVRLVESGGGLVKPGGSLRLSCSASGFDFDNAWMTWVRQPPGKGLEWVGRITGPGEGWSVDYAESVKGRFTISRDNTKNTLYLEMNNVRTEDTGYYFCARTGKYYDFWSGYPPGEEYFQDWGQGTLVIVSSDKTHTQVHLTQSGPEVRKPGTSVKVSCKAPGNTLKTYDLHWVRSVPGQGLQWMGWISHEGDKKVIVERFKAKVTIDWDRSTNTAYLQLSGLTSGDTAVYYCAKGSKHRLRDYALYDDDGALNWAVDVDYLSNLEFWGQGTAVTVSSDKTHTASTKGPSVFPLAPSSKSTSGGTAALGCLVKDYFPEPVTVSWNSGALTSGVHTFPAVLQSSGLYSLSSVVTVPSSSLGTQTYICNVNHKPSNTKVDKKVEPKSCDKTHTCPPCPAPELLGGPSVFLFPPKPKDTLMISRTPEVTCVVVDVSHEDPEVKFNWYVDGVEVHNAKTKPREEQYNSTYRVVSVLTVLHQDWLNGKEYKCKVSNKALPAPIEKTISKAKGQPREPQVYTLPPCRDELTKNQVSLWCLVKGFYPSDIAVEWESNGQPENNYKTTPPVLDSDGSFFLYSKLTVDKSRWQQGNVFSCSVLHEALHSHYTQKSLSLSPG heavy 2: RAHLVQSGTAMKKPGASVRVSCQTSGYTFTAHILFWFRQAPGRGLEWVGWIKPQYGAVNFGGGFRDRVTLTRDVYREIAYMDIRGLKPDDTAVYYCARDRSYGDSSWALDAWGQGTTVVVSAASTKGPSVFPLAPSSKSTSGGTAALGCLVKDYFPEPVTVSWNSGALTSGVHTFPAVLQSSGLYSLSSVVTVPSSSLGTQTYICNVNHKPSNTKVDKKVEPKSCDKTHTCPPCPAPELLGGPSVFLFPPKPKDTLMISRTPEVTCVVVDVSHEDPEVKFNWYVDGVEVHNAKTKPREEQYNSTYRVVSVLTVLHQDWLNGKEYKCKVSNKALPAPIEKTISKAKGQPREPQVCTLPPSRDELTKNQVSLSCAVKGFYPSDIAVEWESNGQPENNYKTTPPVLDSDGSFFLVSKLTVDKSRWQQGNVFSCSVLHEALHSHYTQKSLSLSPG light 2: YIHVTQSPSSLSVSIGDRVTINCQTSQGVGSDLHWYQHKPGRAPKLLIHHTSSVEDGVPSRFSGSGFHTSFNLTISDLQADDIATYYCQVLQFFGRGSRLHIKRTVAAPSVFIFPPSDEQLKSGTASVVCLLNNFYPREAKVQWKVDNALQSGNSQESVTEQDSKDSTYSLSSTLTLSKADYEKHKVYACEVTHQGLSSPVTKSFNRGEC | 65 | 90 | 0.222 | 13 | 18 |  |  |  |  |  | 0.375 |
| Binding Protein 3 (protein) light 1: ASELTQDPAVSVALKQTVTITCRGDSLRSHYASWYQKKPGQAPVLLFYGKNNRPSGIPDRFSGSASGNRASLTITGAQAEDEADYYCSSRDKSGSRLSVFGGGTKLTVLDKTHTDFVLTQSPHSLSVTPGESASISCKSSHSLIHGDRNNYLAWYVQKPGRSPQLLIYLASSRASGVPDRFSGSGSDKDFTLKISRVETEDVGTYYCMQGRESPWTFGQGTKVDIKDKTHTRTVAAPSVFIFPPSDEQLKSGTASVVCLLNNFYPREAKVQWKVDNALQSGNSQESVTEQDSKDSTYSLSSTLTLSKADYEKHKVYACEVTHQGLSSPVTKSFNRGEC heavy 1: QVHLTQSGPEVRKPGTSVKVSCKAPGNTLKTYDLHWVRSVPGQGLQWMGWISHEGDKKVIVERFKAKVTIDWDRSTNTAYLQLSGLTSGDTAVYYCAKGSKHRLRDYALYDDDGALNWAVDVDYLSNLEFWGQGTAVTVSSDKTHTEVRLVESGGGLVKPGGSLRLSCSASGFDFDNAWMTWVRQPPGKGLEWVGRITGPGEGWSVDYAESVKGRFTISRDNTKNTLYLEMNNVRTEDTGYYFCARTGKYYDFWSGYPPGEEYFQDWGQGTLVIVSSDKTHTASTKGPSVFPLAPSSKSTSGGTAALGCLVKDYFPEPVTVSWNSGALTSGVHTFPAVLQSSGLYSLSSVVTVPSSSLGTQTYICNVNHKPSNTKVDKKVEPKSCDKTHTCPPCPAPELLGGPSVFLFPPKPKDTLMISRTPEVTCVVVDVSHEDPEVKFNWYVDGVEVHNAKTKPREEQYNSTYRVVSVLTVLHQDWLNGKEYKCKVSNKALPAPIEKTISKAKGQPREPQVYTLPPCRDELTKNQVSLWCLVKGFYPSDIAVEWESNGQPENNYKTTPPVLDSDGSFFLYSKLTVDKSRWQQGNVFSCSVLHEALHSHYTQKSLSLSPG heavy 2: RAHLVQSGTAMKKPGASVRVSCQTSGYTFTAHILFWFRQAPGRGLEWVGWIKPQYGAVNFGGGFRDRVTLTRDVYREIAYMDIRGLKPDDTAVYYCARDRSYGDSSWALDAWGQGTTVVVSAASTKGPSVFPLAPSSKSTSGGTAALGCLVKDYFPEPVTVSWNSGALTSGVHTFPAVLQSSGLYSLSSVVTVPSSSLGTQTYICNVNHKPSNTKVDKKVEPKSCDKTHTCPPCPAPELLGGPSVFLFPPKPKDTLMISRTPEVTCVVVDVSHEDPEVKFNWYVDGVEVHNAKTKPREEQYNSTYRVVSVLTVLHQDWLNGKEYKCKVSNKALPAPIEKTISKAKGQPREPQVCTLPPSRDELTKNQVSLSCAVKGFYPSDIAVEWESNGQPENNYKTTPPVLDSDGSFFLVSKLTVDKSRWQQGNVFSCSVLHEALHSHYTQKSLSLSPG light 2: YIHVTQSPSSLSVSIGDRVTINCQTSQGVGSDLHWYQHKPGRAPKLLIHHTSSVEDGVPSRFSGSGFHTSFNLTISDLQADDIATYYCQVLQFFGRGSRLHIKRTVAAPSVFIFPPSDEQLKSGTASVVCLLNNFYPREAKVQWKVDNALQSGNSQESVTEQDSKDSTYSLSSTLTLSKADYEKHKVYACEVTHQGLSSPVTKSFNRGEC | 60 | 90 | 0.287 | 12 | 18 |  |  |  |  |  | 0.469 |
